Reference: paper PMC5170556 (Molecular Biology of the Cell, 2016)

Columns and labels:
Bim1 (full-length) = biological target: T1, Bim1 (full-length) (S. cerevisiae, UniProt P40013 1-344); assay: SEC-MALS
T1 sequence (looked up): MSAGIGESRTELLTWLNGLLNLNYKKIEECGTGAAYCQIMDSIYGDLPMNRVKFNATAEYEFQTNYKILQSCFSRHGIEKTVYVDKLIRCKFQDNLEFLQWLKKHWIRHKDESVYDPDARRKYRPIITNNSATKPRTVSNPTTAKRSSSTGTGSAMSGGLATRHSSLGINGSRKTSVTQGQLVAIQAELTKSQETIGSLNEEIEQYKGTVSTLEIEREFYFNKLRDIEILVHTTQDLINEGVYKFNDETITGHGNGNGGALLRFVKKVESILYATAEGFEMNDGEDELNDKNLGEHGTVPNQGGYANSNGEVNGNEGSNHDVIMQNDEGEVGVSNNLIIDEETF

[1] = biological target: T2, C-terminally green fluorescent protein–tagged Bim1 (S. cerevisiae, UniProt P40013 1-344); assay: AUC
T2 sequence (looked up): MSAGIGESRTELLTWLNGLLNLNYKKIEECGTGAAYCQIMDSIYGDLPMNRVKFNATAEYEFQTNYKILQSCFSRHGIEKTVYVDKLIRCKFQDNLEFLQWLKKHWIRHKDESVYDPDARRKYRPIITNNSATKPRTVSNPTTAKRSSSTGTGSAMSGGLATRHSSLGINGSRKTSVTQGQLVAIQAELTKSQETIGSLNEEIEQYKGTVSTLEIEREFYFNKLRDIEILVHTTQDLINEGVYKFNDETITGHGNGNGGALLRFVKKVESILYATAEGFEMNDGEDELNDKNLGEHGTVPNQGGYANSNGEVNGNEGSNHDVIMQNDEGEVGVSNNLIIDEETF

B1: Kar9 (full-length) (natural protein, S. cerevisiae, UniProt P32526 1-644, looked up)
chain: MDNDGPRSMTIGDDFQENFCERLERIHNTLHSINDCNSLNESTTSISETLLVQFYDDLENVASVIPDLVNKKRLGKDDILLFMDWLLLKKYMLYQFISDVHNIEEGFAHLLDLLEDEFSKDDQDSDKYNRFSPMFDVIEESTQIKTQLEPWLTNLKELLDTSLEFNEISKDHMDTLHKIINSNISYCLEIQEERFASPIRHTPSFTLEQLVKLLGTHTETTEPKVPKFSPAEDILSRKFLNLKKNIPPIEKSLTDILPQRIVQFGHRNITNITTLQTILQKKYELIMKDYRFMNSEFRELKVELIDKRWNILFINLNHELLYILDEIERLQSKLLTTKYTKDITIRLERQLERKSKTVSKTFNIIYRALEFSLLDAGVASKTNELAQRWLNIKPTADKILIKSSASNKIATSKKKIPKPKSLGFGRPNSVIGTITQDFQERVAINEGDSNKTPENSTTVALKGKKLGKALLQKMNIKPATSPNSSNAINPFFDPESPNKGKLILSSVPPLPYDETDETTLRVSRGENEKSPDSFITSRHENKVQITETPLMAKNKSVLDIEKDKWNHYRSLPSRIPIYKDKVVKVTVENTPIAKVFQTPPTKITTPNSQVWVPSTRRRTRLRPPTPLSQLLSPREGRLDKTPTY
With B1 as the binder, how does the “stoichiometry N” value (Bim1 (full-length)) read?
Its value is 1 Kar9 monomer per Bim1 dimer.

And the “stoichiometry N” value [1]?
The value was 1 Kar9 monomer per Bim1 dimer.
